What was measured:
[1] = target: cMCU-ΔNTD (C. elegans MCU residues 167-316, N-terminal domain deleted) (C. elegans) (UniProt Q21121); experiment: SEC-MALS
[2] = target: cMCU-ΔNTD (C. elegans MCU residues 167-316, N-terminal domain deleted) (C. elegans) (UniProt Q21121); experiment: negative stain EM
[3] = target: cMCU-ΔNTD (C. elegans MCU residues 167-316, N-terminal domain deleted) (C. elegans) (UniProt Q21121); experiment: cross-linking
cross-linking = target: the molecule itself; experiment: cross-linking

stoichiometry N [1]	stoichiometry N [2]	stoichiometry N [3]	Molecule	stoichiometry N (cross-linking)
5	5	5	cMCU-ΔNTD (C. elegans MCU residues 167-316, N-terminal domain deleted) (from UniProt Q21121 167-316) (domain or fragment)	
			KQNFDIEKYNRLVTEVDELRNQLKRMRDPLE [CCH peptide (cMCU residues 288-316 plus C-terminal L and E)]	5

Source: paper PMC4874835 (Nature, 2016)
